Assay results taken from patent publication US9803013B2, “Biological materials and uses thereof” (BioInvent International AB, priority 2005, dated 2017).

B1: C11: fully human IgG1 antibody specific for surface IgM; VH and VL sequences of FIG. 11 (SEQ ID NOs. 10 and 12) (antibody, listed as Homo sapiens, V domains shown)
VH: EVQLLESGGGLVQPGGSLRLSCAASGFTFGSYEMNWVRQAPGKGLEWVSVIYSGGSTYYADSVEGRFTISRDNSKNTLYLQMNSLRAEDTAVYYCARDTNPYYYYGMDVWGQGTLVTVSS
VL: QSVLTQPPSASGTPGQRVTISCSGSSSNIGNNAVNWYQQLPGTAPKLLIYRNNQRPSGVPDRFSGSKSGTSASLAISGLRSEDEADYYCQSYDSSLNGQVFGGGTKLTVLG
B2: B11: fully human IgG1 antibody specific for ICAM-1; VH and VL sequences of FIG. 10 (SEQ ID NOs. 6 and 8) (antibody, listed as Homo sapiens, V domains shown)
VH: EVQLLESGGGLVQPGGSLRLSCAASGFTFSNAWMSWVRQAPGKGLEWVAFIWYDGSNKYYADSVKGRFTISRDNSKNTLYLQMNSLRAEDTAVYYCARYSGWYFDYWGQGTLVTVSS
VL: QSVLTQPPSASGTPGQRVTISCTGSSSNIGAGYDVHWYQQLPGTAPKLLIYDNNNRPSGVPDRFSGSKSGTSASLAISGLRSEDEADYYCQSYDSSLSAWLFGGGTKLTVLG

Key:
Raji = assay: Apoptosis induction by cross-linked IgG (Annexin V/PI); format: cell-based, human; conditions: for Apoptosis Induction: Raji, viable cells after 6 hour incubation, crosslinked, compared to control FITC-8 IgG1
Description: (§1) 2×10^5 B lymphoma cells (Raji or Ramos) or Jurkat T cells were incubated with serially diluted and detoxified scFv's in culture medium for 1 h on ice.
(§2) When whole IgGs were used for apoptosis induction, cross-linking reagent was replaced by goat Fab′2 anti-human Fc γ antibody (Jackson ImmunoResearch) with minimal cross-reactivity with non-IgG antibody isotypes (to avoid unspecific cross-linking of endogenous B lymphoma associated surface immunoglobulins) and incubated, as described above, for 6 h.
(§3) Apoptotic cells were, unless otherwise stated, detected by combined staining with Annexin V Alexa Fluor 488 (AV) and Propidium Iodide (PI) (both from Molecular Probes, Invitrogen) and subsequent flow-cytometric analysis, Cells were defined as viable (AV−/PI−), early apoptotic (AV+/PI−) or late apoptotic/necrotic (AV+/PI+). AV and PI signals were recorded in the FL1 and FL2 or FL3 channels (as indicated in the text), respectively, using a FACSCalibur instrument (BD Biosciences).
(§4) • ^aApoptosis Induction; determined by percentage of viable cells after 6 hour incubation with any of the human antibodies, crosslinked with Goat anti-Human (gamma) Fc specific antibody; −, viability not affected; +, 95-80%; ++, 79-60%; +++, 59-40% viable cells compared to control (human FITC-8 IgG1). […] The cell line dependent MFI value of control human FITC-8 IgG antibody was subtracted from the MFI of each human antibody.
(§5) BI-505 receptor occupancy was studied following FACS analyses of tumor cells incubated with increasing concentrations of BI-505 in vitro. Briefly, following pre-blocking of tumor cell FcγR with 1 mg/ml human IgG on ice for 15 min, tumor cells were incubated with 10-fold serially diluted (10 μg/ml to 0.00001 μg/ml) AF647-BI505 and surface bound BI-505 was recorded as the mean fluorescence intensities (MFI) picked up in the FL4 channel of a FACSCalibur instrument. The experiment was repeated three times and mean MFI values were calculated and plotted as a function of antibody concentration. A binding saturation curve was generated by plotting mean MFI values as a function of BI-505 concentration. The curve was fitted using a five-parameter log-log curve and XLfit software. BI-505 concentration dependent PCD was calculated by plotting the percentage of maximal tumor PCD in vitro as a function of BI-505 concentration in a manner analogous to that described for BI-505 receptor occupancy. Briefly, tumor cells were cultured with increasing concentrations of BI-505 in the presence of hyper-cross-linking antibody reagent for 24 hr, and PCD was monitored after combined staining with Annexin V/AF488 and propidium iodide using flow cytometry. Cells received treatment in triplicate and the experiment was repeated three to five times. Mean percentage of maximal PCD was then plotted as a function of BI-505 concentration and was fitted using a five parameter log-log curve and XLfit software. In vitro PCD and in vivo anti-tumor activity were plotted as a function of receptor occupancy using curve fitting equations and data generated and described above.

Daudi = assay: as above; format: cell-based, human; conditions: for Apoptosis Induction: Daudi, viable cells after 6 hour incubation, crosslinked, compared to control FITC-8 IgG1
Description: as §1, §2, §3, §4, §5

Ramos = assay: as above; format: cell-based, human; conditions: for Apoptosis Induction: Ramos, viable cells after 6 hour incubation, crosslinked, compared to control FITC-8 IgG1
Description: as §1, §2, §3, §4, §5

[1] = tested on: primary patient's MM cells; assay: Macrophage ADCP; format: cell-based; conditions: human macrophages
Description: Cultured macrophages were detached and plated in flat 96-well plates at 50 000 cells/well and placed in 37° C. CFSE-stained target cells were incubated with antibodies for up to 1 hr on ice. After washing, the different cell solutions were added to the culture plates containing macrophages at a ratio of 5:1 (Target cells:Macrophages). Thereafter, the culture plates were incubated at 37° C. for 1-2 hr (primary patient MM cells) or 16 hr (RPMI-8226 cells). The percentage of macrophages that had phagocytosed tumor cells (CFSE^+, CD206^+) per total analyzed macrophages was determined following gating and acquisition of 5000 CD206^+ cells/sample.
Buffy coats from healthy human donors were ordered through the local blood central at Lund University Hospital and Halmstad Hospital. Peripheral blood mononuclear cells (PBMCs) were first extracted using Ficoll-Paque PLUS (GE Healthcare Life Sciences), followed by isolation of monocytes with CD14 MicroBeads and MACS separation (Miltenyi Biotec). The monocytes were cultured in RPMI 1640 medium with 10% heat-inactivated FBS (Invitrogen) and 25 ng/mL of recombinant human M-CSF (R&D Systems) for 6-14 days, causing differentiation into macrophages. Medium with M-CSF was changed every 2-3 days upon initiation of cultures.
RPMI-8226 cells (ATCC) were continuously cultured in RPMI 1640 medium supplemented with 10 mM HEPES, 1 mM sodium pyruvate and 10% FBS. For multiple myeloma cells, freshly isolated bone marrow samples were donated by patients at Lund University Hospital and subsequently processed with Ficoll-Paque PLUS. Negative isolation of malignant plasma cells was then performed using the Plasma Cell Isolation Kit II according to the manufacturer's instructions (Miltenyi Biotec).
At least 4 h before co-culture with target cells the cultured macrophages were detached with Accutase (Sigma Aldrich), before plated in flat 96-well plates at 50 000 cells/well and placed in 37° C. […] After washing, the different cell solutions were added to the culture plates containing macrophages at a ratio of 5:1 (Target cells:Macrophages). Thereafter, the culture plates were incubated at 37° C. for 1-2 hr (primary patient MM cells) or 16 hr (RPMI-8226 cells). Next, samples were stained with APC-conjugated anti-CD206 antibody (BD Biosciences), before harvested by scraping the culture plate wells. The resulting cell solutions were then analyzed by flow cytometry, where CD206^+ macrophages were gated and acquired at 5000 cells/sample. A cut-off level identifying CFSE^+, CD206^+ double positive (phagocytic) macrophages was set for each experimental sample series. This level differed between the individual assays since the magnitude of basic (unstimulated) phagocytosis varied (different donors and time-points) among the experiments.

B lymphoma tissue = assay: Immunohistochemistry on cryopreserved lymph node biopsies; format: binding, human; parameters: key: Increasing numbers of + indicate stronger staining.; ++: Increasing numbers of + indicate stronger staining.; +++: Increasing numbers of + indicate stronger staining
Description: Cryopreserved lymph node biopsies of patients with Anaplastic Large Cell B lymphoma (one patient), Centroblastic/Centrocytic B non-Hodgkin lymphoma (three patients), and B cell chronic lymphocytic leukaemia (one patient) were obtained from the Department of Pathology at Lund University (Lund, Sweden). Eight-micrometer sections of cryo-preserved tissue were fixed in acetone for 10 min at 4° C. Endogenous biotin-binding activity was blocked by sequential treatment with Avidin and Biotin (Avidin/Biotin blocking kit, Invitrogen) for 20 min each.
Tissues were incubated with 5 μg/ml control scFv or B11 scFv for 1 h. Following washing, sections were incubated with biotin-conjugated mouse anti-His mAb (R&D Systems) for 30 min. scFv binding was detected following treatment with ABC Complex/HRP reagent (Dako Cytomation) for 30 min, and subsequent incubation with DAB for 5 min.
Sections were photographed using a Leica DC 300F digital camera mounted on top of a Leica DMR light/fluorescence microscope.

| Molecule | Apoptosis Induction (Raji) | Apoptosis Induction (Daudi) | Apoptosis Induction (Ramos) | ADCP [1] | Staining of B lymphoma tissue (B lymphoma tissue; Patient A, B-CLL (low malignant non-Hodgkin Lymphoma)) | Staining of B lymphoma tissue (B lymphoma tissue; Patient B, Anaplastic Large Cell B Cell Lymphoma) | Staining of B lymphoma tissue (B lymphoma tissue; Patient D, B-CLL/B-PLL) | Staining of B lymphoma tissue (B lymphoma tissue; Patient F, Centroblastic-Centrocytic B non-Hodgkin Lymphoma) | PCD induction (Raji; ICAM-1-expressing Raji lymphoma cells) | PCD induction (Daudi; ICAM-1-expressing Daudi lymphoma cells) | PCD induction (Ramos; ICAM-1-expressing Ramos lymphoma cells) |
| --- | --- | --- | --- | --- | --- | --- | --- | --- | --- | --- | --- |
| B1 | + (95-80%) | + (95-80%) | +++ (59-40% viable cells compared to control (human FITC-8 IgG1)) | – | – | – | – | – | – | – | – |
| B2 | + (95-80%) | + (95-80%) | ++ (79-60%) | conferred ADCP | + | ++ | ++ | ++ | dose-dependently induced PCD | dose-dependently induced PCD | dose-dependently induced PCD |
